Measured values as given in US20160304625A1.

Target: mIgM proximal domain peptide conjugated to keyhole limpet hemocyanin (human)
Assay: ELISA direct binding, mIgM-PD-KLH

ELISA reading: 0.1
Substance: Control mAb (antibody)
